Test results as given in patent US20110280881A1, “NOVEL ANTI-HSP90 MONOCLONAL ANTIBODY” (RIKEN, priority 2010, published 2011).

Tests used:
[1] = system: GM-CSF-dependent bone marrow-derived dendritic cells; assay: Cytokine production from bone marrow-derived dendritic cells on immobilized 6H8 antibody; assay type: cell-based; conditions: antibody immobilized on 96-well plate, 12 hours
Procedure: (1) […] of the 6H8 antibody diluted in PBS (10 mg/ml) was added to a 96-well flat plate (Corning Incorporated, product number 3596), and the plate was treated at 4° C. overnight. (2) The plate was washed twice with […] of PBS to remove the excess 6H8 antibody. (3) On day 5 after induction, GM-CSF-dependent bone marrow-derived dendritic cells were added to the plate from (2) at 1×10^5/well and cultured in an incubator at 37° C. with 5% CO2. (4) 12 hours after the start of cultivation, the supernatant was recovered; the amounts of cytokines and chemokines in the supernatant were determined according to a standard protocol using the Bio-Plex suspension array system with 23-Plex Panel (Bio-rad, 171-F11241).

cell surface HSP90 = assay: FACS staining of cell surface HSP90 on DC2.4 cells not subjected to membrane permeabilization; assay type: binding; conditions: DC2.4 cells not permeabilized, biotinylated antibody 1 μg/ml, 4° C.
Procedure: (1) 1.1 mg of the biotinylation reagent EZ-Link (registered trademark) Sulfo-NHS-Biotin (21217, Takara Bio Inc.) was dissolved in 250 μl of pure water (concentration 10 mM). 2 of the solution of the biotinylation reagent was added to 100 of an antibody protein (1 mg/ml), and the reaction was allowed to proceed while cooling on ice for 2 hours. After the reaction, the unreacted biotin reagent was removed using Centricon[5k] (Millipore). The reaction product was adjusted to a final concentration of 1 mg/ml and stored at 4° C. (2) DC2.4 not subjected to membrane permeabilization (1×10^6 cells/0.1 ml), along with the biotinylated anti-HSP90 antibody (1 μg/ml), was incubated at 4° C. for 30 minutes. For negative control, DC2.4 was likewise incubated in an antibody-free PBS. (3) After the unreacted antibody was removed, DC2.4 (1×10^6 cells/0.1 ml), along with PE-cy5 streptavidin (eBioscience, 15-4317-82, used at a concentration of 0.5 μg/ml), was incubated at 4° C. for 30 minutes. (4) After the unreacted PE-cy5 streptavidin was removed, the cells were analyzed by FACS (Becton Dickinson).
The right panels of FIGS. 2A and B show FACS data (histograms) for DC2.4 cells stained with each monoclonal antibody in the same manner as Example 2.

[2] = system: cell surface HSP90 on DC2.4 cells; assay: Inhibition of 6H8-OVA cross-presentation by pre-treatment of DC2.4 cells with antibodies; assay type: cell-based; conditions: antibody 20 μg/ml 15 minutes, then 6H8-OVA 3 or 1 μg/ml, IFNγ ELISA
Procedure: Pellets of DC2.4 cells (1.5×10^6 cells) were incubated with 20 μg/ml of each antibody [6H8D2 (6H8), 2A6E9 (2A6) or 4B6G12 (456)] at 37° C. with 5% CO2 for 15 minutes. Subsequently, 6H8-OVA was added to a concentration of 3 or 1 μg/ml, and the pellets were incubated at 37° C. with 5% CO2 for 3 hours. After being washed to remove the unreacted antibody and 6H8-OVA, the cells were fixed in 0.5% para-formaldehyde. These cells (1×10^4 cells) were co-cultured with 1×10^5 OT-I CD8^+ T cells in a 96-well round-bottomed plate at 37° C. with 5% CO2; the supernatant was recovered as appropriate and assayed for IFNγ according to a standard ELISA method.

OT-I CD8+ T cells [3] = assay: In vitro cross-presentation assay, DC2.4 cells with OT-I CD8+ T cells, IFNγ; assay type: cell-based, mouse
Procedure: A cross-presentation assay was performed using each fraction as an antigen. DC2.4 cells were pulsed with 5 μg/ml (30 μg/ml, only for the fraction 33) of each fraction or 1 mg/ml of free OVA for 3 hours. […]
Next, DC2.4 cells were pulsed with a series of doses of 6H8-OVA (fractions 15 to 19) and free OVA (fraction 33) and incubated along with OT-I CD8^+ T cells and OT-II CD4^+ T cells [splenocytes of an OT-II mouse were recovered, and CD11b-positive cells were removed according to a standard protocol using BD IMag anti mouse CD11b magnetic particles DM (BD Biosciences Pharmingen, 558013); next, CD4-positive cells were purified according to a standard protocol using BD IMag anti mouse CD4 particles DM (BD Biosciences Pharmingen, 551539); the cells obtained were used as the OT-II CD4^+ T cells], and the amount of IFNγ secreted from T cells was measured, whereby the cross-presentation potential of 6H8-OVA was evaluated.

OT-I CD8+ T cells [4] = assay: In vivo differentiation of transferred OT-I CD8+ T cells into memory T cells (CD44); set-up: species or system mouse; conditions: 3 μg tail vein, 96 hours, compared with group that did not receive 6H8-OVA
Procedure: (1) 2×10^6 CD8^+ cells of an OT-I/CD45.1 mouse were transferred to a C57BL/6 mouse from the tail vein, with 3 μg of 6H8-OVA or PBS administered from the tail vein concurrently. (2) 96 hours later, the mouse spleen was recovered, and 2×10^6 splenocytes were stained with the following antibodies in a 96-well round-bottomed plate for 30 minutes (while cooling on ice).
PE-anti-mouse/human CD44 (eBioscience: Cat No. 12-0041), concentration: 1 μg/ml, amount used: 100 μl.
Biotin-anti-CD45.1 (eBioscience: 13-0453), concentration: 2.5 μg/ml, amount used: 100 μl.
(3) After being washed twice with PBS, the cells were stained with the following antibody for 30 minutes (while cooling on ice).
Streptavidin-APC (BioLegend: 405207), concentration: 0.2 μg/ml, amount used: 100 μl.
(4) After being washed twice with Annexin-binding buffer, the cells were stained with FITC-Annexin V using the Annexin V FITC reagent for 10 minutes (while cooling on ice).
(5) Fluorescence was determined using FACS Canto (BD).

B1: 6H8: anti-HSP90 monoclonal antibody produced by hybridoma FERM BP-11222; epitope … (antibody)
VH: QVQLQQSGPELVKPGASVRISCKASGYTFTSYYIHWVKQRPGQGLEWIGWIYPGNVNTKYNEKFKGKATLTADKSSSTAYMQLSSLTSEDSAVYFCARYGNYPFAYWGQGTLVTVSAAKTTAPSVYPLAPVCGDTTGSSVTLGCLVKGYF
VL: DVVMTQTPLSLPVSLGDQASISCRSSQSLVHSNGNTYLHWYLQKPGQSPKLLIYKVSNRFSGVPDRFSGSGSGTDFTLKISRVEAEDLGVYFCSQSTHVPPTFGGGTKLEIKRADAAPTVSIFPPSSEQLTSGGASVVCFLNNFYPKDINVKWKIDGS
production of IL-1α, IL-1β, IL-2, IL-4, IL-9, IL-10, IL-12(p40), IL-12(p70), IL-13, G-CSF, GM-CSF, KC, MCP-1, MIP-1α, MIP-1β, RANTES [1]: induced | recognition of cell surface HSP90 (FACS) (cell surface HSP90): recognized cell surface HSP90 with high sensitivity | effect of antibody pre-treatment on the cross-presentation effect of 6H8-OVA [2]: attenuated

B2: 6H8-OVA: high molecular weight conjugate of the 6H8 antibody and maleimide-activated OVA (conjugate)
VH: B1 VH
VL: B1 VL
chain: GSIGAASMEFCFDVFKELKVHHANENIFYCPIAIMSALAMVYLGAKDSTRTQINKVVRFDKLPGFGDSIEAQCGTSVNVHSSLRDILNQITKPNDVYSFSLASRLYAEERYPILPEYLQCVKELYRGGLEPINFQTAADQARELINSWVESQTNGIIRNVLQPSSVDSQTAMVLVNAIVFKGLWEKAFKDEDTQAMPFRVTEQESKPVQMMYQIGLFRVASMASEKMKILELPFASGTMSMLVLLPDEVSGLEQLESIINFEKLTEWTSSNVMEERKIKVYLPRMKMEEKYNLTSVLMAMGITDVFSSSANLSGISSAESLKISQAVHAAHAEINEAGREVVGSAEAGVDAASVSEEFRADHPFLFCIKHIATNAVLFFGRCVSP
induction of IFNγ production by OT-I CD8+ T cells (OT-I CD8+ T cells [3]; DC2.4 pulsed 3 hours with fractions 15 to 21, less than 5 μg/ml protein): efficiently induced IFNγ production by CD8^+ T cells | effectiveness on OT-I CD8+ T cells relative to free OVA (OT-I CD8+ T cells [3]; DC2.4 pulsed with series of doses, IFNγ secreted): at least 100 times | expression level of CD44 on transferred OT-I CD8+ T cells (OT-I CD8+ T cells [4]): increased
